± gives the standard deviation.
Assay: protein stability index of a GFP-peptide fusion (GPS, HEK-293T) (PSI 1-6); higher = more stable
Details: c terminus: a fixed tail appended
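Note: 24-mer peptide tiles fused after GFP, lentivirally expressed, FACS-sorted into six equal bins by GFP/DsRed ratio, decoded by Illumina sequencing, PSI is the read-weighted mean bin number.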

Sequence TVTSLKTKVGGTNPNGGSFEEVLS [TPD52L1] has a protein stability index (treatment: DMSO) of 3.811 ± 0.036 and a protein stability index (treatment: MLN4924 1 uM, 8 h) of 3.82 ± 0.18.
VALGHAYHPEEFVCSQCGKVLEEG [PDLIM7] gave a protein stability index (treatment: DMSO) of 3.93 ± 0.34 and a protein stability index (treatment: MLN4924 1 uM, 8 h) of 4.03 ± 0.11.
For VAVLEQEIKDKDQLVLRTKEAFDT [SASS6], the protein stability index (treatment: DMSO) was 4.57 ± 0.21 and the protein stability index (treatment: MLN4924 1 uM, 8 h) was 4.67 ± 0.41.
For VCNKKFKMKHHLTEHMKTHTGLKP [ZBTB22], the protein stability index (treatment: DMSO) was 3.18 ± 0.14 and the protein stability index (treatment: MLN4924 1 uM, 8 h) was 3.21 ± 0.23.
Sequence VCQKLLLDAMNYHLMPFRQHCRQS [KLHL14] has a protein stability index (treatment: DMSO) of 3 ± 0.47 and a protein stability index (treatment: MLN4924 1 uM, 8 h) of 2.99 ± 0.62.
VCSVRGGEGRSRGSANDYKDTLGK [KRT71] showed a protein stability index (treatment: DMSO) of 4.68 ± 0.32 and a protein stability index (treatment: MLN4924 1 uM, 8 h) of 4.79 ± 0.18.
Work on VDNHFNLLTTSPVFPHYIEKPLGR [TRIM43] yielded a protein stability index (treatment: DMSO) of 3.05 ± 0.4 and a protein stability index (treatment: MLN4924 1 uM, 8 h) of 2.96 ± 0.7.
In the case of VDNSCDWALGVCNNSWIRKNSTMV [TRIM43], the protein stability index (treatment: DMSO) is reported as 2.49 ± 0.34 and the protein stability index (treatment: MLN4924 1 uM, 8 h) is reported as 2.5 ± 0.44.
Work on VDSKPELQRVLEHRRRNQLIKKKK [FAM107A] yielded a protein stability index (treatment: DMSO) of 4.54 ± 0.2 and a protein stability index (treatment: MLN4924 1 uM, 8 h) of 4.61 ± 0.39.
Work on VEECQAALQNKDTYEPFCKVPVIT [KCTD10] yielded a protein stability index (treatment: DMSO) of 4.06 ± 0.15 and a protein stability index (treatment: MLN4924 1 uM, 8 h) of 4.12 ± 0.3.
VEILMILFAFMLVYPKEFHLNRGN [PPEF2] showed a protein stability index (treatment: MLN4924 1 uM, 8 h) of 3.58 ± 0.62.
VEKQADTLNVIELNVQKTVDYTGQ [STX11] showed a protein stability index (treatment: DMSO) of 4.6 ± 0.21 and a protein stability index (treatment: MLN4924 1 uM, 8 h) of 4.58 ± 0.15.
Sequence VERALQLPREPGDSAQFTKALAII [FEM1A] has a protein stability index (treatment: DMSO) of 3.1 ± 0.051 and a protein stability index (treatment: MLN4924 1 uM, 8 h) of 2.8 ± 0.31.
Work on VESSLNVKTKKNAPSATIHQGEEE [FBXO34] yielded a protein stability index (treatment: DMSO) of 5.37 ± 0.22 and a protein stability index (treatment: MLN4924 1 uM, 8 h) of 5.49 ± 0.2.
For VETSAKNAININELFIEISRRIPS [RAB22A], the protein stability index (treatment: DMSO) was 2.34 ± 0.21 and the protein stability index (treatment: MLN4924 1 uM, 8 h) was 2.29 ± 0.52.
Work on VFDAEGYVKPQSCIDIVIRHVAPI [MOSPD3] yielded a protein stability index (treatment: DMSO) of 2.19 ± 0.16 and a protein stability index (treatment: MLN4924 1 uM, 8 h) of 2.19 ± 0.51.
For VFDNAIRAALISRRHLQFWKSHLR [RHOBTB2], the protein stability index (treatment: DMSO) was 2.23 ± 0.38 and the protein stability index (treatment: MLN4924 1 uM, 8 h) was 2.1 ± 0.3.
In the case of VFVGNQLIPQPLDSEEDEKMEEDI [PCMTD1], the protein stability index (treatment: DMSO) is reported as 4.99 ± 0.2 and the protein stability index (treatment: MLN4924 1 uM, 8 h) is reported as 5.07 ± 0.22.
For VGGGFGGGFGGGDGGLLSGNEKIT [KRT15], the protein stability index (treatment: DMSO) was 4.04 ± 0.39 and the protein stability index (treatment: MLN4924 1 uM, 8 h) was 4.16 ± 0.14.
For VGLNTIADLWYLFGDLSLSLVTVG [POMT2], the protein stability index (treatment: DMSO) was 3.71 ± 0.08 and the protein stability index (treatment: MLN4924 1 uM, 8 h) was 3.16 ± 0.79.
Work on VGQSLRIKEQEVCKLQEQLEATVK [SASS6] yielded a protein stability index (treatment: DMSO) of 4.15 ± 0.44 and a protein stability index (treatment: MLN4924 1 uM, 8 h) of 4.26 ± 0.19.
VGTGTFGRVHLVKEKTAKHFFALK [PRKX] showed a protein stability index (treatment: DMSO) of 2.46 ± 0.15 and a protein stability index (treatment: MLN4924 1 uM, 8 h) of 2.85 ± 0.17.
Sequence VHKTKEQFGQDGPISVHCSAGVGR [PTPRD] has a protein stability index (treatment: DMSO) of 4.02 ± 0.23 and a protein stability index (treatment: MLN4924 1 uM, 8 h) of 4.15 ± 0.25.
With VHRDLKPENLLLASKSKGAAVKLA [CAMK2D] the protein stability index (treatment: DMSO) was 3.58 ± 0.77 and the protein stability index (treatment: MLN4924 1 uM, 8 h) was 3.42 ± 0.065.
In the case of VIKDKDDSVDAQNICHVWHMNVEA [RNF180], the protein stability index (treatment: DMSO) is reported as 3.98 ± 0.047 and the protein stability index (treatment: MLN4924 1 uM, 8 h) is reported as 3.66 ± 0.17.
With VKGLFKSENCPKVISCEFAHNSNW [LARP4] the protein stability index (treatment: DMSO) was 2.17 ± 0.24 and the protein stability index (treatment: MLN4924 1 uM, 8 h) was 2.4 ± 0.24.
Work on VKWLSFHSGYDFGYLIKILTNSNL [CNOT7] yielded a protein stability index (treatment: DMSO) of 2.58 ± 0.21 and a protein stability index (treatment: MLN4924 1 uM, 8 h) of 2.86 ± 0.69.
In the case of VLALGLRTDVGITHQHWQQFEPQL [RSAD1], the protein stability index (treatment: DMSO) is reported as 2.23 ± 0.39 and the protein stability index (treatment: MLN4924 1 uM, 8 h) is reported as 2.35 ± 0.21.
Sequence VLELHHSKLDTTKALNLLPANTQI [VPS39] has a protein stability index (treatment: DMSO) of 3.03 ± 0.14 and a protein stability index (treatment: MLN4924 1 uM, 8 h) of 3.12 ± 0.15.
In the case of VLLHGPPGTGKTSLCKALAQKLTI [TRIP13], the protein stability index (treatment: DMSO) is reported as 2.58 ± 0.6 and the protein stability index (treatment: MLN4924 1 uM, 8 h) is reported as 2.31 ± 0.53.
VLNEEGICTQKCALNWTDIPVAME [VPS39] gave a protein stability index (treatment: DMSO) of 3.43 ± 0.18 and a protein stability index (treatment: MLN4924 1 uM, 8 h) of 3.39 ± 0.28.
Sequence VMLKRIHSLYRRTGASFQKAQQEF [SCAMP3] has a protein stability index (treatment: DMSO) of 2.49 ± 0.35 and a protein stability index (treatment: MLN4924 1 uM, 8 h) of 2.68 ± 0.46.
VNLQVATYSKFQPQSPDFLDITNP [UFD1] gave a protein stability index (treatment: DMSO) of 2.53 ± 0.23 and a protein stability index (treatment: MLN4924 1 uM, 8 h) of 2.57 ± 0.27.
Work on VNRRISIVGFGLYGSIHGPTDYQV [BTBD1] yielded a protein stability index (treatment: DMSO) of 2.65 ± 0.77 and a protein stability index (treatment: MLN4924 1 uM, 8 h) of 2.45 ± 1.1.
Work on VPAPQPPVTKPLFPSAGQAQAAVQ [ZNF207] yielded a protein stability index (treatment: DMSO) of 4.39 ± 0.41 and a protein stability index (treatment: MLN4924 1 uM, 8 h) of 4.59 ± 0.18.
With VPSLNAALMHTLQRHRDILQVIYW [GOSR1] the protein stability index (treatment: DMSO) was 2.23 ± 0.55 and the protein stability index (treatment: MLN4924 1 uM, 8 h) was 2.4 ± 0.41.
VQEQQKQLQDQDQKLLEQTQIIGE [FBXO28] gave a protein stability index (treatment: DMSO) of 5.43 ± 0.28 and a protein stability index (treatment: MLN4924 1 uM, 8 h) of 5.36 ± 0.09.
With VQPMDRLPYQHFSAHFTSGPLVPR [TBX5] the protein stability index (treatment: DMSO) was 2.88 ± 0.27 and the protein stability index (treatment: MLN4924 1 uM, 8 h) was 2.88 ± 0.33.
Sequence VRDSDDNSPLHIAALNNHPDIMNL [FEM1C] has a protein stability index (treatment: DMSO) of 4.26 ± 0.24 and a protein stability index (treatment: MLN4924 1 uM, 8 h) of 4.42 ± 0.2.
In the case of VRHEGTRTLWSGLPATLVMTVPAT [SLC25A39], the protein stability index (treatment: DMSO) is reported as 2.33 ± 0.18 and the protein stability index (treatment: MLN4924 1 uM, 8 h) is reported as 2.27 ± 0.13.
For VRHLEEENRGIVVLGINRAYGKNS [AUH], the protein stability index (treatment: DMSO) was 3.15 ± 0.36 and the protein stability index (treatment: MLN4924 1 uM, 8 h) was 3.31 ± 0.22.
VRNQQSLAVSNMGARSKGQCPEPP [PTPN9] gave a protein stability index (treatment: DMSO) of 4.3 ± 0.11 and a protein stability index (treatment: MLN4924 1 uM, 8 h) of 4.21 ± 0.39.
Sequence VSAQRERPRRRDGPEHATRLNGTA [DVL3] has a protein stability index (treatment: DMSO) of 4.7 ± 0.17 and a protein stability index (treatment: MLN4924 1 uM, 8 h) of 4.81 ± 0.21.
VSDITDLELLDKIERSKIVSTMRC [PPEF2] gave a protein stability index (treatment: DMSO) of 3.69 ± 0.27 and a protein stability index (treatment: MLN4924 1 uM, 8 h) of 3.52 ± 0.23.
VSEWASKAKANGITMYAVGVGKAI [MATN2] gave a protein stability index (treatment: DMSO) of 2.33 ± 0.3 and a protein stability index (treatment: MLN4924 1 uM, 8 h) of 2.36 ± 0.2.

Source: the supplement of paper PMC10567573
